What was measured:
[1] = tested on: α-L-rhamnosidase from A. terreus; assay: Influence of rhamnose excess on rhamnosidase activity (product inhibition); assay type: biochemical, Aspergillus terreus; conditions: pNPR substrate, rhamnose solutions 0.6-3 mM added 1:1:1, pH 6.5, 40° C., 30 minutes
Procedure: The analysis was performed only for α-l-rhamnosidase from A. terreus. The influence of rhamnose excess on enzyme activity was investigated using the same colorimetric method as described above (See FIG. 1). The pNPR substrate was first dissolved in DMSO, with concentration adjusted to 300 μM in 100 mM sodium phosphate buffer pH 6.5. Enzymes were diluted to concentration of 30 μg/mL in 100 mM sodium phosphate buffer pH 6.5. Following sequence of rhamnose concentrations were prepared in 100 mM sodium phosphate buffer pH 6.5: 0.6 mM, 1.2 mM, 1.8 mM, 2.4 mM, 3 mM. 240 μL of the total reaction mixture was prepared by adding the substrate solution, the enzyme solution and the rhamnose solution in 1:1:1 ratio. The activity assay was performed on 96-well Microtiter UV plate by Thermo Scientific (Waltham, MA USA). All reactions were done at pH 6.5 and in temperature 40° C. The changes in absorbance were monitored at 405 nm for 30 minutes in Microplate reader Varioskan® Flash. The relative activity of α-L-rhamnosidase from A. terreus was measured using pNPR substrate in the excess of rhamnose in the reaction mix. The analysis was performed in order to study product inhibition phenomenon.

[2] = Rhamnosidase activity assessment, colorimetric method using pNPR; assay type: biochemical; conditions: 40° C.
Procedure: α-l-Rhamnosidase activity of enzyme from A. terreus and enzyme from A. niger was determined by a colorimetric method using p-nitrophenyl-α-l-rhamnopyranoside (pNPR) (See the chemical formula equation shown in FIG. 1). The pNPR substrate was first dissolved in DMSO, with concentration adjusted to 200 μM in 100 mM sodium phosphate buffer pH 6.5. Enzymes were diluted to concentration of 20 μg/mL in 100 mM sodium phosphate buffer pH 6.5. The reaction was prepared by mixing the substrate solution with enzyme solution in 1:1 ratio. The activity assay was performed on 96-well Microtiter UV plate by Thermo Scientific (Waltham, MA USA). All reactions were done at pH 6.5 and in temperature 40° C. The changes in absorbance were monitored at 405 nm for 60 minutes in Microplate reader Varioskan® Flash. The relative activity of α-L-rhamnosidase from A. terreus and α-L-rhamnosidase from A. niger were measured against the p-NPR. The reaction was monitored in time at 40° C. and pH 6.5 (See FIG. 3). The enzymes caused release of the product—4-nitrophenol. […] The 70% conversion of R2 is plenty sufficient for test purposes, therefore the enzyme with faster kinetics was used for further analysis.

[3] = β-D-glucosidase activity assessment, colorimetric method using pNPG; assay type: biochemical
Procedure: β-D-glucosidase activity of enzyme from A. terreus was determined by a colorimetric method using p-nitrophenyl-β-glucopyranoside (pNPG). The pNPG substrate was first dissolved in DMSO, with concentration adjusted to 200 μM in 100 mM sodium phosphate buffer pH 6.5. To analyse the substrate preference, the pNPG was mixed with pNPR at 1:1 ratio, then dissolved in DMSO, and concentration of such mixture was adjusted to 200 μM in 100 mM sodium phosphate buffer pH 6.5. As a control, pNPR, prepared as above, at concentration of 200 μM was used. Enzyme was diluted to concentration of 20 μg/mL in 100 mM sodium phosphate buffer pH 6.5. The reactions were prepared by mixing the substrate solution with enzyme solution in 1:1 ratio. The activity assay was performed on 96-well Microtiter UV plate by Thermo Scientific (Waltham, MA USA). […] The changes in relative absorbance values were monitored at 405 nm for about 30 minutes in Microplate reader Varioskan® Flash.
pNPG was used as a substrate to monitor β-D-glucosidase activity of enzyme from A. terreus, the pNPR was used as a substrate showing α-l-rhamnopyranoside activity, and mixture of both substrates was used to determine substrate preference (see FIG. 5). […] The absorbance signal was not detected for the reaction with pNPG, and the reaction kinetics observed for pNPR substrate was not impacted by presence of pNPG in the reaction with mixed substrates.

Question: With `C[C@H](O)[C@H](O)[C@@H](O)[C@@H](O)C=O` [rhamnose] as the molecule, how does the “effect of added rhamnose on substrate conversion rate” value [1] read?
Answer: Its value is “substrate conversion rate decreased”.

B1: enzyme from A. niger: α-L-rhamnosidase from Aspergillus niger obtained from Megazyme LTD; SEQ ID. 2 (protein)
chain: MAPIALKILLFTSLIVPSISLSDQARNGHARTICEVKPGGSSEIDDVPAIVDALTTCGSGGRVIFSNNTYHINSVMNTTWLDDVEIDLQGTLLWSTNISYWLNHSLPVGYQNQSTAWILGGKDIVFEGHGYGTFNGSGQTWYRYVGSTSNYPRRPNQLTVSGAMGAVFKGLRFVQSQMWTMSIIHTSNSWFDSIYVNNLYDDGGSAQNTDGANTIYSKNITLTNWEVVNGDDSISTKANSTDITIANCTFTSGLGIAIGSIGQYNGAFETVERLKISNITYEKTTHAVYFKTWTGDQVGYPPNGGGGGLGYASDIVATNLKTNNLKGAPFTISQCTTFSGASGNCTNSKFQIRDLVFTDISGTTDSSDVASFQCSAVAPCEDITIENVSLRIAGNTTHAEEYLCGNVDGTVGFNCTGDVCVGSSATGGC
modifications: Aspergillus niger
Question: Which “time to reach about 70% of converted substrate” value ([2]; pNPR 100 μM, pH 6.5) does the source give for B1 here?
Answer: The value was 30 min.

Question: What about the “substrate converted more than A. terreus enzyme after 60 min” value ([2]; pNPR 100 μM, pH 6.5, 60 min) of the same molecule?
Answer: Its value is 10%.

B2: enzyme from A. terreus: recombinant α-L-rhamnosidase from Aspergillus terreus, prepared internally, secreted in P. pastoris; SEQ ID. 1 (protein, listed as Aspergillus terreus)
chain: MALSISQVAFEHHRTALGIGETQPRVSWRFDGNVSDWEQRAYEIEVKRAGHDADVFRSESSDSVLVPWPSSPLQSGEEATVRVRSFGSDGQHDTPWSDAVTVEPGLLTPDDWHDAVVIASDRPTEVDATHRPIQFRKEFSVDDSYVSARLYITALGLYEARINDQRVGDHVMAPGWQSYQYRHEYNTYDVTDLLKQGPNAIGVTVGEGWYSGRIGYDGGKRNIYGDTLGLLSLLVVTKSDGSKLYIPSDSSWKSSTGPIISSEIYDGEEYDSRLEQKGWSQVGFNSTGWLGTHELSFPKERLASPDGPPVRRVAEHKLANVFSSASGKTVLDFGQNLVGWLRIRVKGPKGQTIRFVHTEVMENGEVATRPLRQAKATDHFTLSGEGVQEWEPSFTYHGFRYVQVDGWPADTPLDENSVTAIVVHSDMERTGYFECSNPLISKLHENILWSMRGNFFSIPTDCPQRDERLGWTGDIHAFSRTANFIYDTAGFLRAWLKDARSEQLNHSYSLPYVIPNIHGNGETPTSIWGDAIVGVPWQLYESFGDKVMLEEQYGGAKDWVDKGIVRNDVGLWDRSTFQWADWLDPKAPADDPGDATTNKYLVSDAYLLHSTDMLANISTSLSKGEEASNYTEWHAKLTKEFQKAWITSNGTMANETQTGLALPLYFDLFPSAEQAQSAAKRLVNIIKQNDYKVGTGFAGTHLLGHTLSKYGESDAFYSMLRQTEVPSWLYQVVMNGTTTWERWDSMLPNGSINPGQMTSFNHYAVGSVGSWLHEVIGGLSPAEPGWRRINIEVVPGGDLQQASTKFLTPYGMASTKWWLDGQDQSCGGFDFHLVAEVPPNTRATVVLPGKGGEKVDVGSGVHEYHVRCVKL
Question: What does the source list for B2?
Answer: substrate preference, pNPR versus pNPG and mixed substrates ([3]; pNPG mixed with pNPR 1:1, pH 6.5, 40° C.): recognized only pNPR as a substrate; absorbance signal at 405 nm with pNPG (β-D-glucosidase activity) ([3]; pNPG, pH 6.5, 40° C., about 30 minutes): not detected; converted substrate at plateau ([2]; pNPR 100 μM, pH 6.5): 70%; time to reach about 70% of converted substrate ([2]; pNPR 100 μM, pH 6.5): 10 min; kinetic behaviour compared between the two enzymes ([2]; pNPR, pH 6.5): acting faster

From patent publication US12371726B2, “Process to produce mono-rhamnolipids” (Conopco, Inc., priority 2021, dated 2025)
